According to publication PMC8602628, “Phosphorylation activates the yeast small heat shock protein Hsp26 by weakening domain contacts in the oligomer ensemble” (Nature Communications, 2021):
Changes are numbered by the printed parent chain. Names may count otherwise.

T1: authentic Hsp26 from yeast (S. cerevisiae), P15992
T1 chain: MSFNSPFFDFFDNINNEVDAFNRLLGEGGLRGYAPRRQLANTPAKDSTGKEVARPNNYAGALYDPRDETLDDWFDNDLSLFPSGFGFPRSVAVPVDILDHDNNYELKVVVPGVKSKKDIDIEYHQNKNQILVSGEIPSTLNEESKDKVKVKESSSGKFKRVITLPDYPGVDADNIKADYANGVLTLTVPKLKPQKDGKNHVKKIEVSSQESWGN

B1: Hsp26 S211E (natural protein, S. cerevisiae)
chain: MGSFNSPFFDFFDNINNEVDAFNRLLGEGGLRGYAPRRQLANTPAKDSTGKEVARPNNYAGALYDPRDETLDDWFDNDLSLFPSGFGFPRSVAVPVDILDHDNNYELKVVVPGVKSKKDIDIEYHQNKNQILVSGEIPSTLNEESKDKVKVKESSSGKFKRVITLPDYPGVDADNIKADYANGVLTLTVPKLKPQKDGKNHVKKIEVSSQEEWGN
notes: Hsp26 of S. cerevisiae, phospho-mimetic mutant in pQE60::HSP26; source: E. coli HB101, purified (Q-Sepharose, Superdex200, Resource Q)
B2: Hsp26 S47E (natural protein, S. cerevisiae)
chain: B1 chain with S48E, E212S
notes: as for B1
B3: Hsp26 S207E (natural protein, S. cerevisiae, UniProt P15992 1-214, looked up)
chain: B1 chain with S208E, E212S
notes: an additional glycine stands after the start methionine; phospho-mimetic mutant of the C-terminal region; predominant species a 40mer, one 3D class a 42mer; source: E. coli HB101, purified (Q-Sepharose, Superdex200, Resource Q)
B4: Hsp26 wild-type (WT) protein, recombinant (natural protein, S. cerevisiae)
chain: B1 chain with E212S
notes: Hsp26, small heat shock protein of S. cerevisiae; HSP26 cloned into pQE60 with NcoI and HindIII, which adds a glycine after the start methionine; Forms an ensemble of oligomers, predominantly a 40mer; also called Hsp26 WT; source: E. coli HB101, purified (Q-Sepharose, Superdex200, Resource Q)
B5: Hsp26 T42E (natural protein, S. cerevisiae)
chain: B1 chain with T43E, E212S
notes: as for B1
B6: Hsp26 T48E (natural protein, S. cerevisiae)
chain: B1 chain with T49E, E212S
notes: as for B1
B7: Hsp26 S144E (natural protein, S. cerevisiae)
chain: B1 chain with S145E, E212S
notes: as for B1
B8: Hsp26 S208E (natural protein, S. cerevisiae)
chain: B1 chain with S209E, E212S
notes: as for B1
B9: Hsp26 S208E/S211E (natural protein, S. cerevisiae)
chain: B1 chain with S209E
notes: Hsp26 of S. cerevisiae, phospho-mimetic double mutant in pQE60::HSP26; also called CTR double mutant; source: E. coli HB101, purified (Q-Sepharose, Superdex200, Resource Q)
B10: Hsp26 S90E (natural protein, S. cerevisiae)
chain: B1 chain with S91E, E212S
notes: as for B1
B11: Hsp26 S47E/T48E (natural protein, S. cerevisiae)
chain: B1 chain with S48E, T49E, E212S
notes: Hsp26 of S. cerevisiae, phospho-mimetic double mutant in pQE60::HSP26; source: E. coli HB101, purified (Q-Sepharose, Superdex200, Resource Q)
B12: Hsp26 T163E (natural protein, S. cerevisiae)
chain: B1 chain with T164E, E212S
notes: as for B1
B13: Hsp26 S207E (natural protein, S. cerevisiae)
chain: B1 chain with S208E, E212S
notes: as for B1
B14: authentic Hsp26 from yeast, P15992 1-214 (natural protein)
chain: T1 chain

Molecular target: the molecule itself
Assay: SEC; analytical SEC-HPLC, Superdex200 increase 10/300GL, PBS, 0.5 ml/min, RT, 20 µl of a 20 µM protein solution loaded
Settings: not given

B1: binds.

Molecular target: the molecule itself
Assay: AUC; sedimentation velocity, 23 µM protein, 35,000 rpm (98,500 × g), 20 °C, PBS, absorbance at 280 nm, c(S) distribution in SEDFIT
Settings: not given

B2: binds.

Molecular target: the molecule itself
Assay: cryo-EM structure; S207E dataset; asymmetric heterogeneous refinement (3D classification) in cryoSPARC into 13 classes; class C13
Settings: not given

For B3, the “stoichiometry N” value was 42.

Molecular target: the molecule itself
Assay: CD thermal transition; far-UV CD at 218 nm, 12.5 µM protein in PBS, 20 to 90 °C at 1 K/min; the lower transition is taken as the disassembly of the oligomer
Settings: not given

Going from B4 to B5, the “dissociation temperature of the oligomer” value falls from 42.1 °C to less than 40 °C.

B6 and B7 cannot be ordered by “dissociation temperature of the oligomer” value: less than 40 °C for the first, 35.1 ± 0.1 °C for the second.

B8 and B9 cannot be ordered by “dissociation temperature of the oligomer” value: less than 40 °C for the first, less than 40 °C for the second.

B10 and B11 cannot be ordered by “dissociation temperature of the oligomer” value: less than 40 °C for the first, 36.8 °C for the second.

In the case of B12, the “dissociation temperature of the oligomer” value is reported as 34.6 ± 0.9 °C.

Molecular target: the molecule itself
Assay: cryo-EM structure; 2.0-3.3 mg/ml protein plunge-frozen, Titan Krios 300 kV, K2; 2D class averages (IMAGIC) compared with 40mer reprojections, 3D reconstruction in cryoSPARC
Settings: not given

First: B4
Second: B13
The “fraction of particles representing 40mer views” value of the first is higher: 48.9% for the first, 34.2% for the second.

With B11 the “fraction of particles representing 40mer views” value was 7.3%.

B4 and B13 are the same in “stoichiometry N” value: 40 for the first, 40 for the second.

For B11, the “stoichiometry N” value was 40.

Molecular target: T1, authentic Hsp26 from yeast (S. …)
Assay: as above
Settings: remark: other sources report otherwise

With B14 the stoichiometry N was 40.

Molecular target: Hsp26 FRET complex (5 µM LYI-labeled and 5 µM AIAS-labeled Hsp26 S5C, pre-formed at 40 °C) (S. cerevisiae) (UniProt P15992)
Assay: FRET or BRET; subunit exchange: unlabeled Hsp26 in 39-fold molar excess added to the pre-formed FRET complex, 40 °C, decrease of acceptor fluorescence at 520 nm for 1500 s, exponential fit, kexchange = 1/t1
Settings: not given

B4 and B7 are the same in exchange constant: 0.0032 s⁻¹ for the first, 0.0032 s⁻¹ for the second.

B9 and B10 are within 1.5-fold of each other in exchange constant: 0.0036 s⁻¹ for the first, 0.004 s⁻¹ for the second.

B11 and B12 are within 1.5-fold of each other in exchange constant: 0.004 s⁻¹ for the first, 0.0036 s⁻¹ for the second.
